Each block holds one binder with its values, some of them ahead of it.
B3: Glucose-6-phosphate dehydrogenase (G6PDH) from Leuconostoc mesenteroides, aggregated (enzyme, UniProt P11411 1-486, looked up)
chain: MVSEIKTLVTFFGGTGDLAKRKLYPSVFNLYKKGYLQKHFAIVGTARQALNDDEFKQLVRDSIKDFTDDQAQAEAFIEHFSYRAHDVTDAASYAVLKEAIEEAADKFDIDGNRIFYMSVAPRFFGTIAKYLKSEGLLADTGYNRLMIEKPFGTSYDTAAELQNDLENAFDDNQLFRIDHYLGKEMVQNIAALRFGNPIFDAAWNKDYIKNVQVTLSEVLGVEERAGYYDTAGALLDMIQNHTMQIVGWLAMEKPESFTDKDIRAAKNAAFNALKIYDEAEVNKYFVRAQYGAGDSADFKPYLEELDVPADSKNNTFIAGELQFDLPRWEGVPFYVRSGKRLAAKQTRVDIVFKAGTFNFGSEQEAQEAVLSIIIDPKGAIELKLNAKSVEDAFNTRTIDLGWTVSDEDKKNTPEPYERMIHDTMNGDGSNFADWNGVSIAWKFVDAISAVYTADKAPLETYKSGSMGPEASDKLLAANGDAWVFKG
notes: glucose-6-phosphate dehydrogenase, Leuconostoc mesenteroides; Thermally denatured and aggregated before the co-sedimentation assay; native G6PDH served as the control that was subtracted; also called G6PDH aggregates; source: bought: Worthington

How the values were obtained:
[1] = target: the molecule itself; assay: static light scattering; 15 µM DNAJA2 in refolding buffer (20 mM Hepes-KOH pH 7.6, 50 mM KCl, 5 mM MgCl2, 2 mM DTT) heated to 40 °C and cooled back to 25 °C; oligomers to dimers
[2] = target: B3; assay: co-sedimentation; 2 µM Hsc70, 1 µM J-domain protein (DNAJB1, DNAJA2ΔCD or DNAJA2wt), 0.4 µM Apg2, 0.4 µM aggregated or native G6PDH; pellets on SDS-PAGE, band intensities; amounts in pellets with native G6PDH subtracted; conditions: both partners purified
[3] = target: the molecule itself; assay: cross-linking; 2 µM protein, 0.005% glutaraldehyde, 15 min at 4 °C in 20 mM Hepes pH 7.6, 50 mM KCl, 5 mM MgCl2, 2 mM DTT; SDS-PAGE, Coomassie; monomer, dimer and oligomer bands
Hsc70wt = target: T1, Hsc70wt (human, UniProt P11142 1-646); assay: co-sedimentation; 2 µM Hsc70, 1 µM J-domain protein (DNAJB1, DNAJA2ΔCD or DNAJA2wt), 0.4 µM Apg2, 0.4 µM aggregated or native G6PDH; pellets on SDS-PAGE, band intensities; amounts in pellets with native G6PDH subtracted; conditions: both partners purified
T1 construct: Hsc70 (HSPA8), the constitutively expressed Hsp70 isoform, cDNA from Addgene; also called HSPA8

[4] = target: the molecule itself; assay: negative-stain electron microscopy; samples on carbon-coated grids, 2% uranyl acetate; 15 µM protein; tubular oligomers of dimers
[5] = target: the molecule itself; assay: dynamic light scattering; 30 µM protein in 20 mM Hepes-KOH pH 7.6, 50 mM KCl, 2 mM DTT; volume-based size distributions; the wt also with 300 mM NaCl, 5% 1,6-hexanediol or at 40 °C, which shift it to smaller particles; self-association: dimer and dimers to larger oligomers

T1 sequence (P11142 whole entry, canonical isoform): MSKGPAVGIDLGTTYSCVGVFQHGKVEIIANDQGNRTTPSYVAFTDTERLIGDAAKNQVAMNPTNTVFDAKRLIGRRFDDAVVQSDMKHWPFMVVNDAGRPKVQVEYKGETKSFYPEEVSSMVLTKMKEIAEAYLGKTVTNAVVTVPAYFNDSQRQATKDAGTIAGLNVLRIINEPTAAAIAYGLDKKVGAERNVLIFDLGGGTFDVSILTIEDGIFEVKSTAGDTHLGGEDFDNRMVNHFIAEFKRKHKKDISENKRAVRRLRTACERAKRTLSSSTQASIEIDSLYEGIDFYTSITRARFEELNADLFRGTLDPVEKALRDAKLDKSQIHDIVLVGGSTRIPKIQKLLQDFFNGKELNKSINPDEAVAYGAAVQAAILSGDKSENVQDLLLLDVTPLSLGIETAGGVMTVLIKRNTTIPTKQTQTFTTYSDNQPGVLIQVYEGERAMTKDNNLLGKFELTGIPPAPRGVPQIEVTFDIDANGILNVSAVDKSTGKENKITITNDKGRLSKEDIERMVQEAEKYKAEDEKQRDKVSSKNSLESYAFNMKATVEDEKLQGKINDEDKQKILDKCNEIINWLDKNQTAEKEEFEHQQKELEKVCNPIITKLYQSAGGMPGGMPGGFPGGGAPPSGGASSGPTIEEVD

fold reduction of the aggregate-bound amount against DNAJB1 [2]: ~2 fold
B1: DNAJA2wt (natural protein)
chain: not shown
notes: DNAJA2, human class A J-domain protein; last residue Q412; Dimers that assemble into tubular oligomers; For cryo-EM and XL-MS the sample was cross-linked with BS3; The Ni-NTA-Nanogold is said to label Hsc70 specifically, so the His6-SUMO tag was probably removed; also called DnaJ2A
t1/2 of the temperature-induced dissociation of the oligomers (40 °C) [1]: 2.3 min

binding result [2]: binds
B2: DNAJA2ΔCD (domain or fragment)
chain: not shown
notes: DNAJA2, human, lacking the disordered C-terminal domain (deletion of residues 361 to 412, V361 to Q412)
stoichiometry N [3]: 2

Binder: B3
binding result (Hsc70wt): binds

B4: DNAJA2ΔG/FR (natural protein)
chain: not shown
notes: DNAJA2, human, lacking the glycine/phenylalanine-rich region (deletion of residues 77 to 101); For cryo-EM and XL-MS the sample was cross-linked with BS3; also called DnaJA2∆G/FR; DnJA2ΔG/FR
binding result [4]: binds

B5: DNAJA2ΔZFLR (natural protein)
chain: not shown
notes: DNAJA2, human, lacking the Zn-finger-like region (deletion of residues 141 to 209)
stoichiometry N [5]: 2 | stoichiometry N [3]: ≤ 2

B6: DNAJA2LQ (natural protein)
chain: not shown
notes: DNAJA2, human, with L135 and Q136 in the CTDI mutated to Glu
stoichiometry N [3]: ≤ 2

Source: paper PMC10480186, “The self-association equilibrium of DNAJA2 regulates its interaction with unfolded substrate proteins and with Hsc70” (Nature Communications, 2023)
